Test results from US20240024520A1 (UCB, published 2024).

Target: T1, human complement component C5 (human, UniProt P01031 19-673; P01031 678-1676)
T1 construct: mature; Mature C5 is a disulphide-linked beta and alpha chain cut from one precursor; Terbium-labelled in the FRET assays, biotinylated in part of the phage ELISA; also called human C5; C5-Tb
Assay: SPR multi-cycle kinetics, human C5 immobilised, mean of n=3

T1 sequence (P01031 19-673 limits assumed, chain 1 of 2): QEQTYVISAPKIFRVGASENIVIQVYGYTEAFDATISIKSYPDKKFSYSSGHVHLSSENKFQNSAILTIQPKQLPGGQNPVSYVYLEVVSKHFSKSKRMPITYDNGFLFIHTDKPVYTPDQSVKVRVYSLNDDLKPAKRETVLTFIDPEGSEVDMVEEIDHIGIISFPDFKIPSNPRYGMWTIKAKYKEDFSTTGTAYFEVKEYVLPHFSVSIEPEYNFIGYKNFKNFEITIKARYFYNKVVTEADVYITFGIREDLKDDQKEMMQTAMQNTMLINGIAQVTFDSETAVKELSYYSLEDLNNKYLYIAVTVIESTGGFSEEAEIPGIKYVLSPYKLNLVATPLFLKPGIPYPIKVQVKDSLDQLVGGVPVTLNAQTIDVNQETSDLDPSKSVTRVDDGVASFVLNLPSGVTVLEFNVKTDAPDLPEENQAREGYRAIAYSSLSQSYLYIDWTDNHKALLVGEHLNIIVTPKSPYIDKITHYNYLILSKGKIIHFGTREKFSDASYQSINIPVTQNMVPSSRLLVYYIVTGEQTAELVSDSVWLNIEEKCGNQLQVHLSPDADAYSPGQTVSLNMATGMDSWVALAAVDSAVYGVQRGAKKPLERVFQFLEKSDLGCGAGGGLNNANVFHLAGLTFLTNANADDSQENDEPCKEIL
T1 sequence (P01031 678-1676 limits assumed, chain 2 of 2): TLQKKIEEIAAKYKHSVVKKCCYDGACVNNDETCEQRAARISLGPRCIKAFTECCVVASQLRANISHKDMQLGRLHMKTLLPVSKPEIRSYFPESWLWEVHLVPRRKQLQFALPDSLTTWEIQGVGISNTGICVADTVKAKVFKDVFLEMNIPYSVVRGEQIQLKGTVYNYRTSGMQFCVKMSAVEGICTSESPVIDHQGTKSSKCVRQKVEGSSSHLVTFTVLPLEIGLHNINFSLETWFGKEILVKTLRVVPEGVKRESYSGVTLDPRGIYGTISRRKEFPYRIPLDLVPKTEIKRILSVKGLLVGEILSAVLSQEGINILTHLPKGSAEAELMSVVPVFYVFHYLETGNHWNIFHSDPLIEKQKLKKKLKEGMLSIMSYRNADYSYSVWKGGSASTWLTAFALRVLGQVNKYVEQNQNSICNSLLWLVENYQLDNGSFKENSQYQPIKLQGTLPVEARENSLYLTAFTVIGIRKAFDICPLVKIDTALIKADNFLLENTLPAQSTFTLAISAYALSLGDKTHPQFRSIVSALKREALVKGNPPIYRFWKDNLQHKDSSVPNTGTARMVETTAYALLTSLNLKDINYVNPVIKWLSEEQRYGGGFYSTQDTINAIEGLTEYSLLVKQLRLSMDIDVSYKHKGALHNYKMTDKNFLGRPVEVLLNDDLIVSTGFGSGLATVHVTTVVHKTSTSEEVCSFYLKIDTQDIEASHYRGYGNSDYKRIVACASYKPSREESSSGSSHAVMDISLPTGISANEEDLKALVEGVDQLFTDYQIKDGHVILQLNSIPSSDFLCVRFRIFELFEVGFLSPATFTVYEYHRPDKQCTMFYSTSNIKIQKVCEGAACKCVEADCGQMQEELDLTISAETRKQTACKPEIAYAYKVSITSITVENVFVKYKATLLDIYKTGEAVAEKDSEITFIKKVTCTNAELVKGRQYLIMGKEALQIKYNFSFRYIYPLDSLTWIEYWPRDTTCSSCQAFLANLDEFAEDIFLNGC

| Binder | Kd [nM] | koff [s⁻¹] | kon [M⁻¹ s⁻¹] |
| --- | --- | --- | --- |
| TCPEGWSECGVAIYGYECGRWGCGHALNSGPNISPYVST [K92chemFE F26A] | 18.8 | 0.00328 | 184000 |
| TCPEGWSECGVAIAGYECGRWGCGHFLNSGPNISPYVST [K92chemFE Y14A] | 3.62 | 0.0001 | 27200 |
| TCPEGWSECGVAIYGAECGRWGCGHFLNSGPNISPYVST [K92chemFE Y16A] | 221 | 0.786 |  |
| TCPEGWSECGVAIYGYECGRAGCGHFLNSGPNISPYVST [K92chemFE W21A] | 497 | 0.00848 | 17400 |
| TCPEGASECGVAIYGYECGRWGCGHFLNSGPNISPYVST [K92chemFE W6A] | 219 | 0.00157 | 7980 |
| TCPEGWSECGVAIYGYECGRHGCGHFLNSGPNISPYVST [K92chemFE W21H] | 1.48 | 0.000612 | 425000 |
